Reference: US20250262297A1, “ALLERGY ANTIGEN AND EPITOPE THEREOF” (HOYU CO., LTD., priority 2017, published 2025)
One block for each molecule: values may come before it.

System: IgE antibodies from soybean-allergic patients
Assay: Immunoblotting of two-dimensional electrophoresis pattern of soybean proteins with patient serum
Type: binding, human
Conditions: spot in 2D electrophoresis gel of soybean proteins; patient serum compared with healthy subject serum
Excerpt: Transfer to membrane was done using the following transfer system and transfer buffer. • Transfer system: XCell SureLock Mini-Cell and XCell II Blot Module (produced by Life Technologies) • Transfer buffer: NuPAGE Transfer Buffer (X20) (produced by Life Technologies), used in a form diluted 20-fold with milliQ water.
To be specific, proteins in the two-dimensional electrophoresis gels were transferred to a membrane (PVDF membrane) according to the following procedure. • (1) The PVDF membrane was immersed in 100% methanol followed by milliQ water, and then moved into the transfer buffer to hydrophilize the PVDF membrane. • (2) After sponge, filter paper, the gels treated by second-dimensional SDS-PAGE, the hydrophilized PVDF membrane, filter paper, and sponge were put in place in this order, the transfer system was energized at a constant voltage of 30 V for one hour.
Immunoblotting of the membrane was carried out using, as a primary antibody, a serum sample from a patient with a soybean allergy or a serum sample from a healthy subject.
Immunoblotting of the membrane was carried out according to the following procedure. • (1) The transferred membrane was shaken in a 5% skim milk/PBST solution (a PBS buffer containing 0.3% Tween 20 nonionic surfactant) at room temperature for one hour. • (2) The membrane was left to stand in a solution of 3% primary antibody serum in 5% skim milk/PBST at room temperature for one hour. • (3) The membrane was washed with a PBST solution (5 min.×3 times). • (4) The membrane was left to stand in a 1:2500 dilution of the secondary antibody, anti-human IgE-HRP (horseradish peroxidase), with a 3% skim milk/PBST solution at room temperature for one hour. • (5) The membrane was washed with a PBST solution (5 min.×3 times). • (6) The membrane was left to stand in Pierce Western Blotting Substrate Plus (produced by Thermo Fisher Scientific) for 5 minutes.
The membrane obtained through the foregoing series of treatments was subjected to fluorescent image scanning on Typhoon 9400 (produced by GE).
The immunoblots obtained with the serum from the soybean-allergic patient were compared with those obtained with the control serum from the healthy subject.

B2: ATP synthase subunit O, mitochondrial-like (protein)
chain: MALCNRVRSGISLFTKSTFLTSQRSTLQRSLVAPFISLASRNYANVPGQKETKVKVPLALFGGSGNYASALYIASVKANAVEKVETELLQFVEAVKNSPIFSQFIRDLSVAKDVRVKVIQDICGEAKFSDVTKNFLVIVAENGRLKNIDTIAKRFAQLSMAYKGEVQATVTTVVPLPPEEEKALKETLQEIIGSGAKVHLEQKIDPSILGGLVLEFSQKVFDMSIKTRAQQMERILREPVSIANI
specific binding to IgE antibodies from soybean-allergic patients: specific binding

B5: eukaryotic translation initiation factor 5A-2 (protein)
chain: MSDEEHHFESKADAGASKTYPQQAGTIRKNGYIVIKGRPCKVVEVSTSKTGKHGHAKCHFVGIDIFTAKKLEDIVPSSHNCDVPHVNRTDYQLIDIAEDGFLSLLTENGNTKDDLKLPTDESLLTQIKDGFAEGKDLVVSVMSAMGEEQICALKDIGPKN
modifications: Glycine max
notes: spot also identified as uncharacterized protein LOC100305510
specific binding to IgE antibodies from soybean-allergic patients: specific binding

B7: superoxide dismutase [Mn], mitochondrial (protein)
chain: MAARALLTRKTLATVLRNDAKPIIGVGITAAATHSRGLHVYTLPDLDYDYGALEPAISGDIMQLHHQKHHQTYITNYNKALEQLQDAIAKKDSSAVVKLQGAIKFNGGGHVNHSIFWKNLAPVREGGGEPPKGSLGWAIDTHFGSFEALIQKVNAEGAALQGSGWVWLGLDKELKRLVVETTANQDPLVTKGPNLVPLIGIDVWEHAYYLQYKNVRPDYLKNIWKVINWKYASEVYEKESS
modifications: Glycine max
notes: spot also identified as hypothetical protein GLYMA_04G221300
specific binding to IgE antibodies from soybean-allergic patients: specific binding

B9: alcohol dehydrogenase 1 (protein)
chain: MSSSTVGQVIKCKAAVSWEAGKPLVIEEVEVAPPQAGEVRLKILYTSLCHTDVYFWEAKGQTPLFPRIFGHEAGGIVESVGEGVTHLKPGDHALPVFTGECGECPHCKSEESNMCDLLRINTDRGVMIHDSQTRFSIKGQPIYHFVGTSTFSEYTVVHAGCVAKVNPAAPLDKICVLSCGICTGLGATINVAKPKPGSSVAIFGLGAVGLAAAEGARISGASRIIGVDLVSSRFEEAKKFGVNEFVNPKDHDKPVQEVIAAMTNGGVDRAVECTGSIQAMISAFECVHDGWGVAVLVGVPNKDDAFKTHPVNFLNERTLKGTFYGNYKPRTDLPSVVEKYMNGELELEKFITHTVPFSEINKAFDYMLKGESIRCIIRMGE
modifications: Glycine max
notes: spot also identified as alcohol dehydrogenase 1-like
specific binding to IgE antibodies from soybean-allergic patients: specific binding

B10: endoplasmin homolog isoform X2 (protein)
chain: MRKWTVASALLLLSLLFLFADQGRKFQANAEGDSDELVDPPKVEDKIGAVPHGLSTDSDVVKREAESISKRSLRSNAEKFEFQAEVSRLMDIIINSLYSNKDIFLRELISNASDALDKIRFLSLTDKEVLGEGDNTKLDIQIKLDKEKKILSIRDRGIGMTKEDLIKNLGTIAKSGTSAFVEKMQTSGDLNLIGQFGVGFYSVYLVADYVEVISKNNDDKQYVWESKADGAFAISEDTWNEPLGRGTEIRLHLKEEAGEYLEESKLKELVKRYSEFINFPIYIWASKEVDVEVPADEDDSSDEEDSSESSSKEESEDEDADKSEDEEKKPKTKTVKETTYEWELLNDVKAIWLRNPKEVTEEEYTKFYHSLAKDFSDEKPLAWSHFTAEGDVEFKAVLFVPPKAPQDLYESYYNANKSNLKLYVRRVFISDEFNELLPKYLNFLLGLVDSDTLPLNVSREMLQQHSSLKTIKKKLIRKALDMIRRIADEDPDESTDKEKKDASSDNDEKKGQYSKFWNEFGKSIKLGIIEDATNRNRLAKLLRFESTKSEGKLTSLDQYISRMKTGQKDIFYITGTSKEQLENSPFLERLKKKNFEVIFFTDPVDEYLMQYLMDYEDKKFQNVSKEGLKLGKDSKDKELKESFKDLTKWWKTALSKDNVDDVKISNRLDNTPCVVVTSKFGWSANMERIMQSQTLSDASKQAYMRGKRVLEINPRHPIIKELRERVVKNPEDEGVKHTAQLMYQTALFESGFLLDDPKDFASRIYDSVKTSLDISPEATVEEEDDTEVEAESDAKEDSKPETDAVNDDNDVKDEL
modifications: Glycine max
specific binding to IgE antibodies from soybean-allergic patients: specific binding

B11: P24 oleosin isoform A (protein)
chain: MTTQVPPHSVQVHTTTHRYEAGVVPPGARFEPPRYEAGVKAPSIYHSERGPTTSQVLAVLAGLPVGGILLLLAGLTLAGTLTGLAVATPLFVLFSPVLVPATVAIGLAVAGFLTSGAFGLTALSSFSWILNYIRETQPASENLAAAAKHHLAEAAEYVGQKTKEVGQKTKEVGQDIQSKAQDTREAAARDAREAAARDAREAAARDAKVEARDVKRTTVTATTATA
modifications: Glycine max
specific binding to IgE antibodies from soybean-allergic patients: specific binding

B12: 35 kDa seed maturation protein isoform X1 (protein)
chain: MASRQQFKEDRAEAAAKLAAKDIGDINRTNERDEGYDLHDEANFKQARAEAAAKLAAKDLEDANRLRDNTFNTWKEQHQHDENKPGVIGSMFRAAKEAVVGKPHHEEVYAKETKMGEYSDYATQKARETKQKAGEYTDYAAQKAKETKDYAAEKAKNAKDTTVQKAGEYKDYTAEKAKNAKDTTVQKAGEYKDYTAEKAIEGKDSAVGKLGELKESAADAAKRAMGFFTGGNKDQTREEEEETRRSMQEVRVQDKEYGTGRGTGEKLVIKMEESRPGAVADALKAANRAMDGDMEEEGVLHVERRREKM
specific binding to IgE antibodies from soybean-allergic patients: specific binding

The next lines start with the values.

specific binding to IgE antibodies from soybean-allergic patients: specific binding
B1: uncharacterized protein LOC100813859 (protein)
chain: MASEESQNKPPSEQSTTELITSAKLVAEAAQSALKSDSDKVDKAKVADAAGDLLDAAGKYGKLDDKQGIGQYVDKAADYLHNYQGDNTTAPSQPAESKGEESGGGLGGLANLAGGFFKK

specific binding to IgE antibodies from soybean-allergic patients: specific binding
B3: phosphoglycerate kinase, cytosolic (protein)
chain: MATKRSVGTLKEGDLKGKRVFVRVDLNVPLDDNLNITDDTRVRAAVPTIKYLTGYGAKVILSSHLGRPKGVTPKYSLKPLVPRLSQLLGIEVTMANDSIGEEVEKLVTQLPEGGVLLLENVRFYKEEEKNDPEFAKKLASLADLYVNDAFGTAHRAHASTEGVAKYLKPSVAGFLMQKELDYLVGAVSNPKRPFAAIVGGSKVSSKIGVIESLLEKVNVLLLGGGMIFTFYKAQGYSVGSSLVEEDKLSLATTLLEKAKAKGVSLLLPTDVVIADKFAADANSKTVPASSIPDGWMGLDIGPDSIKTFGEALDTTQTIIWNGPMGVFEFDKFATGTEAIAKKLAELSGKGVTTIIGGGDSVAAVEKVGLADKMSHISTGGGASLELLEGKQLPGVLALDDA
modifications: Glycine max

specific binding to IgE antibodies from soybean-allergic patients: specific binding
B4: uncharacterized protein LOC100306570 (protein)
chain: MASQSNTKSVHDFTVKDARGNNVNLADYKGKVLLIVNVASQCGLTNSNYTELNQLYEKYKGKGLEILAFPCNQFGAQEPGTNEEIVEFACTRFKAEFPIFDKVDVNGDNAAPLYKFLKSSKGGLFGDSIKWNFSKFLVDKDGNVVDRYAPTTSPLSIEKDIKKLLDA

specific binding to IgE antibodies from soybean-allergic patients: specific binding
B6: seed maturation protein PM34 (protein)
chain: MASGEQKFPPQQQQTQPGKEHAMTPVPQFTSPDYKPSNKLQGKIALVTGGDSGIGRAVCNLFALEGATVAFTYVKGHEDKDARDTLEMIKRAKTSDAKDPMAIASDLGYDENCKRVVDEVVSAYGCIDILVNNAAEQYECGTVEDIDEPRLERVFRTNIFSYFFMARHALKHMKEGSSIINTTSVNAYKGHAKLLDYTSTKGAIVAYTRGLALQLVSKGIRVNGVAPGPIWTPLIPASFKEEETAQFGAQVPMKRAGQPIEVAPSYVFLASNQCSSYITGQVLHPNGGTVVNG
modifications: Glycine max
notes: spot also identified as uncharacterized protein LOC100809384 and hypothetical protein GLYMA_10G155300

specific binding to IgE antibodies from soybean-allergic patients: specific binding
B8: seed maturation protein PM22 (protein)
chain: MSQLLDKAKNFVSEKVNDMAKPEASVTDVDFKRVSKDNVEYLAKVSVRNPYSTSIPICEINYSFKSASREIASGKIPDPGSLKAKDTTMVDVPVKVPYSILMSLAKDIGADWDIDYQLDLGLVIDVPVIGIFTIPLSQKGEIKLPTLSTMFA

specific binding to IgE antibodies from soybean-allergic patients: specific binding
B13: uncharacterized protein LOC100499771 (protein)
chain: MAPIAVGDVIPDGILAYLDEENKPQTVSIHSLAAGKKVIIFGVPGAFTPTCSLKHVPGFIERAEELKGKGVDEIICISVNDPFVMNSWAKTFPENKHVKFLADGAAKYTNALGLELDLTDKGLGVRSKRFALLVEDLKVKVANVESGGEFTISSAEEIIKAL
modifications: Glycine max
notes: spot also identified as hypothetical protein GLYMA_09G192800

specific binding to IgE antibodies from soybean-allergic patients: specific binding
B14: uncharacterized protein At3g49720-like isoform X2 (protein)
chain: MTRKQASSTRRGGLSGVLHSKSKSSPLLSISLVLFVAILLILYACIGSGILGGRKDVISMAEDDFSCTFEVPSAIPVLKNAYGGSMKNVLHVGPESCSVVSKFLREGETEAWGVEPYDLDDADRNCKALVQKGIIRVADIKFPLPYRVKSFSHVIVSDALDYLSPKYINKTLPELARVSSDGIIIFTGYPGQPRAKIAPLSKFGRPHRC
